The values that follow are results of earlier work, collected in paper PMC11381654.

As usually defined, the Kd is the concentration at which binding is half-saturated.

This data set has as its target IL-4Rα (Homo sapiens) (UniProt P24394).

Regarding dupilumab, the dissociation constant Kd was 0.033 nM.
